Targets include SRSF1 P89S (human, UniProt Q07955 1-248, P89S); SRSF1 E60D (human, UniProt Q07955 1-248, E60D); SRSF1 wild type (human, UniProt Q07955 1-248).
Common to all, as to experiment: EMSA
On the technique in general: Mobility shift assays separate free from complexed probe on a gel.

SRSF1 P89S, sequence (Q07955 whole entry P89S): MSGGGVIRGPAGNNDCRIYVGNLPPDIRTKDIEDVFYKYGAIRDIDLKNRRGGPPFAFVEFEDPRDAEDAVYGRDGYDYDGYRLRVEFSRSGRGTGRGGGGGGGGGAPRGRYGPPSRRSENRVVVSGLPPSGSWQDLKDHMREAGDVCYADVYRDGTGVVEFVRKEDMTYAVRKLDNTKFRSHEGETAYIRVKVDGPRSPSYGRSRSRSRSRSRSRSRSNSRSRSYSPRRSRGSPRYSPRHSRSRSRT
SRSF1 wild type, sequence (Q07955 whole entry): as the sequence (Q07955 whole entry P89S) above, with S89P counted along it
SRSF1 E60D, sequence (Q07955 whole entry E60D): as the sequence (Q07955 whole entry P89S) above, with E60D, S89P counted along it

B1: ssRNA (64mer) (ssRNA)
RNA: UUUCCCAGCACCAGAUUCAGCAUACGUUACCGAUCGUACGUUCGAUGCUGGCUACUGCUAGCUU
B1: the binding result with SRSF1 P89S is “no binding”; with SRSF1 E60D, “binds”; with SRSF1 wild type, “binds”.

Source of the values: article PMC10865995.
